Reference: patent publication US20220144927A1 (SUMITOMO DAINIPPON PHARMA, published 2022)
Substitutions are numbered along the chain they refer to.

B1: antibody 1 (antibody, V domains shown)
VH: EVQLLESGGGLVQPGGSLRLSCAASGFTFSNYGMSWVRQAPGKGLEWVSTISNSGRYTYFPDSVKGRFTISRDNSKNTLYLQMNSLRAEDTALYYCTRHLDYANYDAMDYWGQGTLVTVSS
VL: DIVMTQSPSSLSASVGDRVTITCRASKSVTTSDFSYMHWYQQKPGKAPKLLIYLASNLESGVPSRFSGSGSGTDFTLTISSLQPEDFATYYCQHSREFPWTFGGGTKVEIK
notes: Humanized antibody of the invention; also called H01L01
B2: antibody 18 (antibody, V domains shown)
VH: B1 VH with L5V, Q13K, S75A, T78S, L93V, T97A
VL: DIVMTQTPLSSPVTLGQPASISCRASKSVTTSDFSYMHWLQQRPGQPPRLLIYLASNLESGVPDRFSGSGAGTDFTLKISRVEAEDVGVYYCQHSREFPWTFGQGTKVEIK
notes: also called H06L06
B3: antibody 4 (antibody, V domains shown)
VH: B1 VH
VL: DIVMTQSPDSLAVSLGERATINCKASKSVTTSDFSYLHWYQQKPGQPPKLLIYLASNLESGVPDRFSGSGSGTDFTLTISSLQAEDVAVYYCQHSREFPWTFGGGTKLEIK
notes: Humanized antibody of the invention; also called H01L04
B4: antibody 19 (antibody, V domains shown)
VH: B1 VH with L93V, T97A, R98K
VL: B2 VL with S11L, P12S, L15P, L40Y, Q41L, R43K, R49Q, A71S
notes: also called H05L07
B5: antibody 2 (antibody, V domains shown)
VH: B1 VH
VL: B1 VL with I2V, S10T, K46Q, G104Q, V108L
notes: Humanized antibody of the invention; also called H01L02
B6: antibody 11 (antibody, V domains shown)
VH: B1 VH with E1L, L5V, L11V, G16R, S49A, L93V
VL: B1 VL with V3Q, A47S, T76S
notes: Humanized antibody of the invention; also called H03L03
B7: antibody 13 (antibody, V domains shown)
VH: B1 VH with A24V, K76R, S85T, L93V, L116P
VL: B1 VL
notes: Humanized antibody of the invention; also called H04L01
B8: antibody 7 (antibody, V domains shown)
VH: B1 VH with E1L, L5V, L11V, Q13R, V37I, S75A, T78S
VL: B1 VL with V3Q, A47S, T76S
notes: Humanized antibody of the invention; also called H02L03
B9: antibody 16 (antibody, V domains shown)
VH: B1 VH with A24V, K76R, S85T, L93V, L116P
VL: B3 VL
notes: Humanized antibody of the invention; also called H04L04
B10: antibody 10 (antibody, V domains shown)
VH: B1 VH with E1L, L5V, L11V, G16R, S49A, L93V
VL: B1 VL with I2V, S10T, K46Q, G104Q, V108L
notes: Humanized antibody of the invention; also called H03L02
B11: antibody 12 (antibody, V domains shown)
VH: B1 VH with E1L, L5V, L11V, G16R, S49A, L93V
VL: B3 VL
notes: Humanized antibody of the invention; also called H03L04
B12: antibody 15 (antibody, V domains shown)
VH: B1 VH with A24V, K76R, S85T, L93V, L116P
VL: B1 VL with V3Q, A47S, T76S
notes: Humanized antibody of the invention; also called H04L03
B13: antibody 5 (antibody, V domains shown)
VH: B1 VH with E1L, L5V, L11V, Q13R, V37I, S75A, T78S
VL: B1 VL
notes: Humanized antibody of the invention; also called H02L01
B14: antibody 9 (antibody, V domains shown)
VH: B1 VH with E1L, L5V, L11V, G16R, S49A, L93V
VL: B1 VL
notes: Humanized antibody of the invention; also called H03L01
B15: antibody 14 (antibody, V domains shown)
VH: B1 VH with A24V, K76R, S85T, L93V, L116P
VL: B1 VL with I2V, S10T, K46Q, G104Q, V108L
notes: Humanized antibody of the invention; also called H04L02
B16: antibody 6 (antibody, V domains shown)
VH: B1 VH with E1L, L5V, L11V, Q13R, V37I, S75A, T78S
VL: B1 VL with I2V, S10T, K46Q, G104Q, V108L
notes: Humanized antibody of the invention; also called H02L02
B17: antibody 17 (antibody, V domains shown)
VH: B1 VH with L93V, T97A, R98K
VL: B1 VL with V3Q, S12A, A13V, V15L, K46L, L77F, F87I, G104Q, I110V
notes: also called H05L05
B18: antibody 3 (antibody, V domains shown)
VH: B1 VH
VL: B1 VL with V3Q, A47S, T76S
notes: Humanized antibody of the invention; also called H01L03
B19: antibody 8 (antibody, V domains shown)
VH: B1 VH with E1L, L5V, L11V, Q13R, V37I, S75A, T78S
VL: B3 VL
notes: Humanized antibody of the invention; also called H02L04

How the values were obtained:
mucin subtype 5AC [1] = target: T1, mucin subtype 5AC (human, UniProt P98088 28-5654, limits assumed); assay: ELISA, plate coated with crude extract antigen solution of SW1990 xenograft tumor, HRP anti-human IgG; reference antibody
T1 construct: Not a purified recombinant protein; also called MUC5AC; crude extract antigen solution
Experimental: (§1) Various antibodies were added to a 96 well plate coated with various antigens, and the plate was left standing for 1 hr at room temperature. The plate was washed, a blocking solution was added, and the mixture was left standing for 30 min at room temperature. The plate was washed, HRP-conjugated anti-human IgG was added, and the mixture was left standing for 1 hr or longer at room temperature. The plate was washed, a color development reagent (Bethyl Laboratories, Inc.) was added, and the degree of color development was measured by a microplate reader (VersaMax, Molecular Devices, LLC.).
(§2) In Table 2 and Table 3, a tumor mass collected from a cancer-bearing model mouse transplanted with human pancreatic cancer cell line SW1990 was homogenized, and the supernatant (crude extract antigen solution) after centrifugation was used as an antigen. In Table 4, a mucin fraction obtained by isopycnic centrifugation using cesium chloride from the crude extract antigen solution was used as the antigen.

mucin subtype 5AC [2] = target: T1, mucin subtype 5AC; assay: ELISA, plate coated with mucin fraction (CsCl isopycnic centrifugation of SW1990 tumor crude extract), HRP anti-human IgG
Experimental: as §1, §2

mucin subtype 5AC [3] = target: T1, mucin subtype 5AC; assay: ELISA, plate coated with crude extract antigen solution of SW1990 xenograft tumor, HRP anti-human IgG
Experimental: as §1, §2

Binder | in vitro binding activity ratio to antibody 20 (mucin subtype 5AC [2]) | in vitro binding activity ratio to antibody 1 (mucin subtype 5AC [3]) | in vitro binding activity ratio to antibody 9 (mucin subtype 5AC [3]) | other results
B1 | – | – | – | in vitro binding activity ratio to antibody 1 (mucin subtype 5AC [1]): 1 fold vs antibody 1
B2 | 0.13 fold vs antibody 20 | – | – | –
B3 | 0.97 fold vs antibody 20 | 0.99 fold vs antibody 1 | – | –
B4 | 0.49 fold vs antibody 20 | – | – | –
B5 | – | 1.03 fold vs antibody 1 | – | –
B6 | – | – | 1.25 fold vs antibody 9 | –
B7 | – | – | 0.9 fold vs antibody 9 | –
B8 | – | 0.65 fold vs antibody 1 | – | –
B9 | 1.09 fold vs antibody 20 | – | 0.88 fold vs antibody 9 | –
B10 | – | – | 0.96 fold vs antibody 9 | –
B11 | – | – | 0.91 fold vs antibody 9 | –
B12 | – | – | 1.36 fold vs antibody 9 | –
B13 | – | 0.6 fold vs antibody 1 | – | –
B14 | – | – | – | in vitro binding activity ratio to antibody 9 (mucin subtype 5AC [1]): 1 fold vs antibody 9
B15 | – | – | 1.04 fold vs antibody 9 | –
B16 | – | 0.71 fold vs antibody 1 | – | –
B17 | 0.75 fold vs antibody 20 | – | – | –
B18 | 1.56 fold vs antibody 20 | 0.99 fold vs antibody 1 | – | –
B19 | 0.7 fold vs antibody 20 | 0.72 fold vs antibody 1 | – | –
